Measurements: patent US11856945B2, “Methods and systems for preparing and preserving a biological sample” (Washington University, priority 2017, dated 2024)

Experiments:
[1] = NGAL quantity in eluates by BCA assay; assay type: physicochemical; settings: paper card stored at 40° C. for 1 week; % of spiked amount
[2] = Preservation of NGAL in patient urine dried on paper (ELISA); assay type: physicochemical; settings: three acute kidney injury patients, 1 week
Method: Following the successful optimization of ZIF-8 encapsulation using spiked artificial urine samples, the applicability of this technique to patient urine samples was evaluated. Three acute kidney injury patients with different urinary NGAL levels (Patient #1: 32.8 ng/ml, Patient #2: 17.4 ng/ml and Patient #3: 97.5 ng/ml, quantified by ELISA and confirmed by Western blotting, FIG. 15) were selected. […] Thus, protein biomarkers in the mixture are not subjected to extremely low or high pH (Table 2). To assess the preservation efficacy of NGAL, the urine samples with and without ZIF-8 encapsulation dried on paper substrates were stored at 25 or 40° C. for 1 week. NGAL concentration in the eluate was quantified using ELISA. […] Frozen liquid sample (−20° C.) was used as a reference. POSs represent 3 distinct Positive Control signal intensities (POS1>POS2>POS3). Results are the mean and standard deviation from two parallel dots for each biomarker. The frozen-liquid samples stored at −20° C. were employed as the reference.
Sample preparation. NGAL-spiked artificial urine (50 μg/ml of NGAL, 25 μl) or patient urine (25 μl) was first mixed with 2-methylimidazole aqueous solution (12.5 μl) and then zinc acetate dihydrate aqueous solution (12.5 μl). The final concentrations of 2-methylimidazole after mixing were 320 mM, 160 mM, 80 mM and 40 mM. […]

B1: neutrophil gelatinase-associated lipocalin (protein, UniProt P80188 21-198, looked up)
Neutrophil …: QDSTSDLIPAPPLSKVPLQQNFQDNQFQGKWYVVGLAGNAILREDKDPQKMYATIYELKEDKSYNVTSVLFRKKKCDYWIRTFVPGCQPGEFTLGNIKSYPGLTSYLVRVVSTNYNQHAMVFFKKVSQNREYFKITLYGRTKELTSELKENFIRFSKSLGLPENHIVFPVPIDQCIDG
notes: urinary biomarker for acute kidney injury; human recombinant
[1]
  proteins eluted as measured by BCA assay: 70%
[2]; 25° C.
  NGAL preservation in patient urine: less than 40%
[2]; 40° C.
  NGAL preservation in patient urine: less than 40%
